Patent US20230051701A1 (Bristol-Myers Squibb, published 2023)
Values joined by “and” are separate entries in the source; they are usually repeats but may differ in a detail not shown here. Equal entries are not always repeated.

T1: human CD73 on cells (Calu6, NCI-H292, SK-MEL-24, human tumor cell lines, human B and T cells) (human, UniProt P21589 27-549)
T1 sequence: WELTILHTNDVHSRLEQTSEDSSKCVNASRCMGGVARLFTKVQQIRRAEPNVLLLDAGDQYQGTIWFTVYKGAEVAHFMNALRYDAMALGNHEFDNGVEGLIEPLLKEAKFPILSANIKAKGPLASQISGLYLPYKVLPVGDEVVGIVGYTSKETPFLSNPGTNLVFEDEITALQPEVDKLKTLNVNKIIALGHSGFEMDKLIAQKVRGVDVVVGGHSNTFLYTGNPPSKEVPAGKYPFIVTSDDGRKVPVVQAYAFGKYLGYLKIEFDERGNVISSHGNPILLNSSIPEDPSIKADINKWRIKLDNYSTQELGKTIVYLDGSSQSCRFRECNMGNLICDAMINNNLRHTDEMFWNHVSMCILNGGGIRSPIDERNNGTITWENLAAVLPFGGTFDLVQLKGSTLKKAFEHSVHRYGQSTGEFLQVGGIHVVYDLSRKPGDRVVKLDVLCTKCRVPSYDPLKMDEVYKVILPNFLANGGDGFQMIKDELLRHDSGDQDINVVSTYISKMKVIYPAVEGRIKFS

T2: N-terminal domain of hCD73 (residues 26-336 of human CD73), His-tagged (human, UniProt P21589 26-336)
T2 construct: also called N-hCD73; N-hCD73-his
T2 sequence: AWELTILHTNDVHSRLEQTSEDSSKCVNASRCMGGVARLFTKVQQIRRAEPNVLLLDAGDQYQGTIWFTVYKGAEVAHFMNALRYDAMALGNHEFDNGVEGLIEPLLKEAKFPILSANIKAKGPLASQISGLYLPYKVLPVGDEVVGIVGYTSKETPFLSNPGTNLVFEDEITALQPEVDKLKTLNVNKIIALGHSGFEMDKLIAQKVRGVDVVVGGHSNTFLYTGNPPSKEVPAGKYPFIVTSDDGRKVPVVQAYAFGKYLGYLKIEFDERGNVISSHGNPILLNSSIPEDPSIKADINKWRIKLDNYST

T3: rhCD73 bound to his-tag magnet beads (human, UniProt P21589 27-549, limits assumed)
T3 sequence: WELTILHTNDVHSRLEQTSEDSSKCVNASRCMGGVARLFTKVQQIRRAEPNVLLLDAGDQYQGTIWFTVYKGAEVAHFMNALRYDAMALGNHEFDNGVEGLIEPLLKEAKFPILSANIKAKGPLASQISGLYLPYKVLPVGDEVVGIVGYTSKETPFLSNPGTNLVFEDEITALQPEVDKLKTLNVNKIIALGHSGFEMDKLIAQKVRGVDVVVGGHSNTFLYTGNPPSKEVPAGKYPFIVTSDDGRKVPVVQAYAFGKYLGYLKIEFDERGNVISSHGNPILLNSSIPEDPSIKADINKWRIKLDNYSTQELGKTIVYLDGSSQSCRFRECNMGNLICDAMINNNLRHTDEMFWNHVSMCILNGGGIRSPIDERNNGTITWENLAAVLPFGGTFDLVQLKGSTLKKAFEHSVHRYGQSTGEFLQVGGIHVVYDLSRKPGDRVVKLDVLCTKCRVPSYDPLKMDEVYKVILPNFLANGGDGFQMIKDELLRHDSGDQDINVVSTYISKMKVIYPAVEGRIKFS


Tests used:
[1] = target: T1, human CD73 on cells (Calu6, NCI-H292, …); test: cell-based or functional assay
[2] = target: T2, N-terminal domain of hCD73 (residues …); test: SPR, mAb captured on protein A
Description: For these experiments, protein A (Pierce) was immobilized to a density of 3000 — 4000 RU on flow cells 1-4 of a CM5 sensor chip (GE Healthcare) using standard ethyl(dimethylaminopropyl) carbodiimide (EDC)/N-hydroxysuccinimide (NHS) chemistry, with ethanolamine blocking, in a running buffer of 0.01 M HEPES pH 7.4, 0.15 M NaCl, 3 mM EDTA, 0.005% v/v tween 20. […] The running buffer for the kinetic experiments was 10 mM sodium phosphate, 130 mM sodium chloride, 0.05% tween 20, pH 7.1. The surfaces were regenerated after each cycle using two 30 s pulses of 10 mM glycine pH 1.5 at a flow rate of 30 μl/min. Sensogram data was double-referenced and then fitted to a 1:1 Langmuir model using Biacore T100 evaluation software v2.0.4, to determine the association rate constant (ka), the dissociation rate constant (kd), and the equilibrium dissociation constant (KD).

[3] = target: T1, human CD73 on cells (Calu6, NCI-H292, …); test: cell-based or functional assay; remark: listed apart in the source
[4] = target: T3, rhCD73 bound to his-tag magnet beads; test: cell-based or functional assay
[5] = target: T1, human CD73 on cells (Calu6, NCI-H292, …); test: binding titration on Calu6 cells, average of 2-6 experiments
Description: Titration binding curves were produced with CD73 antibodies on Calu6 (CD73 endogenous expressors; human pulmonary adenocarcinoma cell line), DMS114 (CD73 negative; human small cell lung cancer cell line), CHO-cynoCD73 (cynoCD73-transfected) and CHO-K1 (cynoCD73 negative), cells using Alexa Fluor® 647 Goat Anti-Human IgG (H+L) as a secondary antibody, Invitrogen Cat#A-21445, using the following method: 100000 cells were plated in 100 uL PBS+2% FBS per well and blocked for 20 min. Using a U-bottom 96-deep well plate, volumes of antibody and PBS+2% FBS were combined as dictated by Table 12 below.
An 8-point serial dilution was performed by diluting a sixth of the volume (90 uL) into 450 μL PBS+2% FBS. The cell plate was spun down for 5 minutes at 1500 rpm. 100 uL of diluted antibody was added per well of the plate. 100 uL PBS+2% FBS were added to all other wells. […] The plates were spun down at 1500 rpm for 5 min and washed in 200 uL PBS +2% FBS per well. The plates were washed again, resuspended in 200 uL 2% FBS in PBS per well and the samples were run.

[6] = target: T1, human CD73 on cells (Calu6, NCI-H292, …); test: cell-based or functional assay; remark: listed apart in the source

Row | Ymax, cAMP HTRF assay [1] | Kd [2] | koff [2] | kon [2] | EC50 (nM), CD73 internalization, Calu6, 2 h [3] | Ymax, CD73 internalization, Calu6, 2 h [3] | EC50 (nM), inhibition of bead-bound rhCD73 enzymatic activity [4] | EC50 [5] | EC50 Calu6 inhibition [6] | IC50 (nM), cAMP HTRF assay, Calu-6 with HEK293/A2AR cells [1] | EC50 H292 inhibition [6] | EC50 SKMEL24 inhibition [6] | Binder
1 | 80 % of 100 nM 11F11 | – | – | – | – | – | – | – | – | – | – | – | 4C3 (antibody, human IgG1, kappa, V domains shown, IgG1za from hybridoma; also called 4C3-1) VH: EVQLVESGGGLVQPGRSLRLSCAASGFTFDDYAMHWVRQAPGKGLEWVSGISWKSGSIGYADSVKGRFTISRDNAKNSLYLQMNSLRAEDTALYYCVKGYYVILTGLDYWGQGTLVTVSS VL: not shown
2 | – | 9.4 nM and 6.2 nM | 0.00077 s⁻¹ and 0.00049 s⁻¹ | 82000 M⁻¹ s⁻¹ and 79000 M⁻¹ s⁻¹ | 0.38 nM | 104 % of 100 nM 11F11 | 5.31 nM | 0.82 nM | – | – | – | – | 4D4 (antibody, human IgG2, kappa, IgG2 from hybridoma; also called 4D4-1) heavy: QVQLVESGGGVVQPGRSLRLSCAASGFTFSNYGMHWVRQAPGKGLEWVAVIWYDESNKYYADSVKGRFTISRDNSKNTLFLQMNSLRAEDTAVYYCARGYNSRWYPDAFDIWGQGTMVTVSSASTKGPSVFPLAPCSRSTSESTAALGCLVKDYFPEPVTVSWNSGALTSGVHTFPAVLQSSGLYSLSSVVTVPSSNFGTQTYTCNVDHKPSNTKVDKTVERKCCVECPPCPAPPVAGPSVFLFPPKPKDTLMISRTPEVTCVVVDVSHEDPEVQFNWYVDGVEVHNAKTKPREEQFNSTFRVVSVLTVVHQDWLNGKEYKCKVSNKGLPAPIEKTISKTKGQPREPQVYTLPPSREEMTKNQVSLTCLVKGFYPSDIAVEWESNGQPENNYKTTPPMLDSDGSFFLYSKLTVDKSRWQQGNVFSCSVMHEALHNHYTQKSLSLSPGK light: not shown
3 | – | 1.6 nM | 0.00095 s⁻¹ | 610000 M⁻¹ s⁻¹ | – | 29 % of 100 nM 11F11 | 6.94 nM | – | – | – | – | – | 10D2 (antibody, human IgG4, kappa, V domains shown, also called 10D2-2) VH: QVQLVESGGGVVQPGRSLRLSCAASGFTFSNYGLHWVRQAPGKGLEWVAVIRYDGSNKYYADSVKGRFTISRDNSKNTLYLQMSSLRAEDTAVYYCARGGSSWYPDGLDVWGQGTTVTVSS VL: DIQMTQSPSSLSASVGDRVTITCRASQGISSWLAWYQQKPEKAPKSLIYAASSLQSGVPSRFSGSGSGTDFTLTISSLQPEDFATYYCQQYNSYPLTFGGGTKVEIKR
4 | 84 % of 100 nM 11F11 | 140 nM | 0.0076 s⁻¹ | 55000 M⁻¹ s⁻¹ | – | – | 3.12 nM | 1.93 nM | 2.21 nM | 4.87 nM | – | – | 11A6 (antibody, human IgG1, kappa, V domains shown, IgG1za from hybridoma; also called 11A6-1) VH: EVQLVESGGNLVQPGRSLRLSCAASGFTFDDYAMHWVRQAPGKGLEWVSGISWNNNDIGYADSVKGRFIISRDNAKNSLYLQMNSLRPEDTALYYCVKGYYVILTGLDYWGQGTPVTVSS VL: DIQMTQSPSSLSASVGDRVTITCRASQGISSWLAWYQQKPEKAPKSLIYAASSLQSGVPSRFSGSGSGTDFTLTISSLQPEDFATYYCQQYNSYPLTFGGGTKVEIKR
5 | 45 % of 100 nM 11F11 | 0.43 nM | 0.00038 s⁻¹ | 880000 M⁻¹ s⁻¹ | 2.59 nM | 50 % of 100 nM 11F11 | 2.86 nM | 0.35 nM | 0.95 nM | 0.95 nM | 1.31 nM | 3.72 nM | 7A11 (antibody, human IgG1, kappa, V domains shown, IgG1za from hybridoma; also called 7A11-1) VH: EVQLVESGGGLVQTGRSLRLSCAASGFTFDDYAMHWVRQAPGKGLEWVSDISWNSDIIGYADSVKGRFTISRDNAKNSLYLQMNSLRAEDTALYYCAKDIYGSGSSFFDYWGQGILVTVSS VL: DIQMTQSPSSLSASVGDRVTITCRASQYISSWLAWYQQKPEKAPKSLIYAASSLQSGVPSRFSGSGSGTDFTLTISSLQPEDFATYYCQQYHSYPPTFGQGTRLEIKR
6 | – | 14 nM | 0.0032 s⁻¹ | 230000 M⁻¹ s⁻¹ | 8.2 nM | 51 % of 100 nM 11F11 | 4.18 nM | – | – | – | – | – | 24H2 (antibody, human IgG4, kappa, V domains shown, also called 24H2-1) VH: QVQLVESGGGVVQPGRSLRLSCAASGFTFSNYGMHWVRQAPGKGLEWVAVIWYDGGNKYYADSVKGRFTISRDNSKNTLFLQMNSLRAEDTAVYYCARGGSSWYPDAFDIWGQGTMVTVSS VL: DIQMTQSPSSLSASVGDRVTITCRASQGISSWLAWYQQKPEKAPKSLIYAASSLQSGVPSRFSGSGSGTDFTLTISSLQPEDFATYYCQQYNSYPLTFGGGTKVEIKR
7 | 80 % of 100 nM 11F11 | 41 nM | 0.006 s⁻¹ | 150000 M⁻¹ s⁻¹ | – | – | 5.76 nM | 11.7 nM | 8.1 nM | 13.2 nM | 13.5 nM | 110 nM | 5F8 (antibody, human IgG1, kappa, V domains shown, IgG1za from hybridoma; predominant light chain VK1, VK2 also expressed; also called 5F8-1) VH: EVQLVESGGGLVQPGGSLRLSCAASGFTFSSYWMHWVRQAPGKGLVWVSRIISDGSSTGYADSVKGRFTISRDNAKNTLYLQMNSLRAEDTAVYYCAREFSSGWYFDYWGQGTLVTVSS VL: AIQLTQSPSSLSASVGDRVTITCRASQGISSALAWYQQKPGKAPKLLIYDASSLESGVPSRFSGSGSGTDFTLTISSLQPEDFATYYCQQFSSYPRTFGQGTKVEIKR
